Source: paper PMC9388512 (Nature Communications, 2022)
FAM = carboxyfluorescein label

Legend:
[1] = target: T1, eIF4E, purified recombinant human full-length (human, UniProt P06730 1-217); assay: SPR; 4E-BP1^4ALA over eIF4E amine-coupled to a CM5 chip; single or multi cycle not told; fitted with a 1:1 model (poor fit) and then with a 2-state model; n = 3; conditions: both partners purified
T1 construct: eIF4E, human, full-length clone in pET11d; m7GTP was present at immobilisation and in the crystals; also called pure eIF4E; eukaryotic translation initiation factor 4E
T1 sequence (P06730 whole entry): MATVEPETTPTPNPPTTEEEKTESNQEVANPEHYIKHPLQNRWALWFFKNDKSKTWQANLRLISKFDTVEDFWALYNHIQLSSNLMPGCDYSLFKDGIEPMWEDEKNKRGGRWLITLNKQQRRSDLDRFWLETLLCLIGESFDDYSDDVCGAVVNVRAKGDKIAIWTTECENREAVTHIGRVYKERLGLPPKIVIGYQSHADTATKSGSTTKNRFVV

[2] = target: T1, eIF4E, purified recombinant human …; assay: fluorescence polarisation; competition: eIF4E 200 nM, FAM-labelled eIF4G1 peptide 50 nM, VH domains titrated; PBS pH 7.4, 0.1% Tween 20; conditions: both partners purified

Row | Binder | Kd [1] [nM] | binding result [2]
1 | 4E-BP1^4ALA, purified (natural protein, UniProt Q13541 1-118, looked up) MSGGSSCSQTPSRAIPATRRVVLGDGVQLPPGDYSTAPGGTLFSTAPGGTRIIYDRKFLMECRNAPVTKAPPRDLPTIPGVTSPSSDEPPMEASQSHLRNSPEDKRAGGEESQFEMDI | 0.68 | 
2 | Ac-KKRYSRDFLLALQK(FAM)-NH2 (also called labelled peptide; tracer peptide; source: synthetic peptide; bought: Mimotopes) [FAM labelled eIF4G1 peptide (Ac-KKRYSRDFLLALQK-(FAM)-NH2)] |  | binds
